{
  "source": "patent US8178091B2",
  "about": "“Compositions and methods for the treatment of respiratory disorders” (University of Washington, priority 2007, dated 2012)",
  "key": {"insulin receptor (IR)": {"target": "insulin receptor (IR) (Homo sapiens, UniProt P06213)", "details": "cited from earlier work"}, "IGF-1R [1]": {"system": "IGF-1R", "details": "murine and human tissues; cited from earlier work"}, "[2]": {"assay_type": "in vivo, mice", "details": "absence of bleomycin, not shown", "description": "In the saline control group, most deaths occurred between 7 and 10 days, as expected in this model. […] In the absence of bleomycin, administration of A12 alone had no affect on survival, lung histology, BAL protein concentration or cell count (not shown)."}, "[3]": {"system": "primary normal human lung fibroblasts", "assay": "apoptosis assay (Cell Death Detection ELISA-plus), lung fibroblasts", "assay_type": "cell-based", "details": "serum starvation, increasing concentrations; listed as IGF-1R antibody", "experimental": "(§1) A: Normal human lung fibroblast or distal lung epithelial cells were serum-starved overnight and then incubated with indicated concentration of IGF-1R antibody or IGFBP-3 overnight. B: A549 cells were serum-starved and incubated with IGF-1R antibody (136 μg/ml) with or without the indicated concentration of Fas ligand. Apoptosis was measured by Cell Death ELISA-plus ELISA (Roche Applied Science) per the manufacturer's directions. All experiments were done in triplicate and repeated at least twice. Apoptosis index is defined as the ratio of experimental condition OD405 nm: control (media alone) OD405 nm.\n(§2) Primary normal human lung fibroblasts (Clonetics, Cambrex Bioscience, Rockland, Me.), primary distal lung human epithelial cells (Clonetics) or A549 (American Type Culture Collection, Manassas, Va.) were seeded in a 96-well tissue culture plate (2×10^4 cells/well) overnight and serum-starved for 24 hours. […] After 48 hours, apoptosis was measured. To prevent detached cells from being aspirated, plates were centrifuged at 200×g for 10 minutes, and apoptosis was measured using the Cell Death Detection ELISA-plus System (Roche Applied Science, Penzberg, Germany), which detects cytosolic histone-complexed DNA fragments. […]"}, "IGF-1R [4]": {"target": "T1, IGF-1R (Mus musculus, UniProt Q60751)", "T1 construct": "Western blot analysis for IGF-1R on lungs and spleen lysates at day 14 post-bleomycin; from tissue; host or cells: mouse lung, spleen, kidney", "T1 sequence (Q60751 31-1373)": "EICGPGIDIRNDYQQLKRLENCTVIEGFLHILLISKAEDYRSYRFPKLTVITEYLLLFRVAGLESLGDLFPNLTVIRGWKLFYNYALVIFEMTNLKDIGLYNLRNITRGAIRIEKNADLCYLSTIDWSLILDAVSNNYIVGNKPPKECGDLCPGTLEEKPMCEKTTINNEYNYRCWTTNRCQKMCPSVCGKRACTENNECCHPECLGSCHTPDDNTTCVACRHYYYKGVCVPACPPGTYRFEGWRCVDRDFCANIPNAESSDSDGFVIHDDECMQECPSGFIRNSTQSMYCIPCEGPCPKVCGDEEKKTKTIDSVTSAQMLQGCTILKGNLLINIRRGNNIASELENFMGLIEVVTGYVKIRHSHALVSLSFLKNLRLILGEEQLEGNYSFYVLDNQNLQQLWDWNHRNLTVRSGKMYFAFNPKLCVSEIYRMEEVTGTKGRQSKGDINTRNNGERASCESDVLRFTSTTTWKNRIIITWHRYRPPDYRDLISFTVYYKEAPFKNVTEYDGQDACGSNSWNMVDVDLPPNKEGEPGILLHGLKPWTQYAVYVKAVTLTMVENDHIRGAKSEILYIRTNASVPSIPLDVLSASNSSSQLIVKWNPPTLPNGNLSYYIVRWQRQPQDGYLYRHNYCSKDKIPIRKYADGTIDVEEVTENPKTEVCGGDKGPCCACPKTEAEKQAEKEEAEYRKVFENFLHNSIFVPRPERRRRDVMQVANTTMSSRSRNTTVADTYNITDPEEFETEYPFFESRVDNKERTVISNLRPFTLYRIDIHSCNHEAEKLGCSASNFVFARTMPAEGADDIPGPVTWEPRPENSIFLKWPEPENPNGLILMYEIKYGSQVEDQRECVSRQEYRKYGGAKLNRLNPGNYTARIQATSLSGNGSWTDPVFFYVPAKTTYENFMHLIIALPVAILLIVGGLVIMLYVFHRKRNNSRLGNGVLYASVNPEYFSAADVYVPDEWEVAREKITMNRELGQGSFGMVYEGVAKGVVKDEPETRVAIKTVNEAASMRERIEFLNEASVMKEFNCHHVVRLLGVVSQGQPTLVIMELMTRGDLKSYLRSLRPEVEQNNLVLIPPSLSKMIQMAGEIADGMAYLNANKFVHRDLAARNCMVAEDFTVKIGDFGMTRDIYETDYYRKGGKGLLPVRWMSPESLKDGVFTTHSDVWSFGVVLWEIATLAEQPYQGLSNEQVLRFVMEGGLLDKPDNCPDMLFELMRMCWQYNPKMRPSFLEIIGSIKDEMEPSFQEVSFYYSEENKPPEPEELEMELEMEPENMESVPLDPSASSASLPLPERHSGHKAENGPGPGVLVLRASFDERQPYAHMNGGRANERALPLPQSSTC", "assay": "IGF-1R expression in tissues after systemic A12 (IHC, Western blot)", "assay_type": "in vivo, mice", "experimental": "ICR male mice are anesthetized under pentobarbital (60 mg/kg, i.v.) anesthesia, the cervical region is shaved and the skin is incised for about 4 mm from under the larynx region along the median line. Next, the muscle layer covering upper trachea is peeled off to expose the trachea. Using a micro-syringe, physiological saline or bleomycin hydrochloride (0.03 mg/animal, manufactured by Nippon Kayaku) is administered tracheally (50 μl/animal) from the tracheal smooth muscle region between cricoid cartilage. After the administration, the incised region is closed and antibiotics are administered into the thigh intramuscularly in order to prevent infection. IGF-1R inhibitor, e.g., antibody to IGF-1 receptor (A12). The A12 antibody was administered intraperitoneally at the time of bleomycin administration and subsequently 2-3× per week at a dose of 40 mg/kg (initial experiments involved dosing 3× per week, and later experiments dosed 2× per week; results were the same). […] Controls included bleomycin-treated animals receiving saline injection in place of A12 antibody. […] Lung hydroxyproline content is measured as a measure of fibrosis. Changes in lung tissue histology are also monitored. […] Bronchoalveolar lavage fluid (BALF) total cell count was determined by trypan blue exclusion and cell differential was determined on Diff quick (Dade Behring Ag, Düdingen, Switzerland) stained cytospins. […]"}, "fibroblasts": {"system": "fibroblasts", "assay": "Fas-induced apoptosis, fibroblasts", "assay_type": "cell-based, human", "details": "data not shown", "experimental": "Primary normal human lung fibroblasts (Clonetics, Cambrex Bioscience, Rockland, Me.), primary distal lung human epithelial cells (Clonetics) or A549 (American Type Culture Collection, Manassas, Va.) were seeded in a 96-well tissue culture plate (2×10^4 cells/well) overnight and serum-starved for 24 hours. Function blocking antibody to the human type 1 IGF receptor (A12), a generous gift from ImClone Systems (New York, N.Y.) (Burtrum D, et al., Cancer Res 63:8912-8921 (2003); Wu J D, et al., Clin Cancer Res 11:3065-3074 (2005)), was added to media at indicated concentration for 24 hours. In some experiments, soluble Fas ligand (Alexis Biochemicals, Lausen, Switzerland) or IGFBP-3 (R&D Systems) was added to cells. […] After 48 hours, apoptosis was measured. To prevent detached cells from being aspirated, plates were centrifuged at 200×g for 10 minutes, and apoptosis was measured using the Cell Death Detection ELISA-plus System (Roche Applied Science, Penzberg, Germany), which detects cytosolic histone-complexed DNA fragments. […] The data are reported as the mean absorbance of triplicate wells mean+SE or as apoptosis index, defined as the ratio of the mean absorbance of triplicate wells in the experimental condition OD405 nm/control (media alone) OD405 nm."}, "epithelial cells (A549)": {"system": "epithelial cells (A549)", "assay": "Fas-induced apoptosis, epithelial cells", "assay_type": "cell-based, human", "details": "A549, antibody 136 μg/ml with Fas ligand", "experimental": "as §1, §2"}},
  "note": "“Also recorded” adds a separate entry of the source.",
  "data": [
    {"substance": "A12: Function blocking antibody to the human type 1 IGF receptor, gift from ImClone Systems", "values": [
      {"measurement": "cross-reaction with insulin receptor", "setting": "insulin receptor (IR)", "value": "does not cross-react"},
      {"measurement": "IGF-1R signaling", "setting": "IGF-1R [1]", "value": "inhibits IGF-1R signaling"},
      {"measurement": "survival, lung histology, BAL protein concentration or cell count", "setting": "[2]", "value": "had no affect"},
      {"measurement": "apoptosis of primary human lung fibroblasts", "setting": "[3]", "value": "dose-dependent increase in apoptosis; also recorded: increased apoptosis"},
      {"measurement": "IGF-1R expression in lungs", "setting": "IGF-1R [4]; day 7 post-bleomycin, vs saline", "value": "marked decrease in IGF-1R expression; also recorded: decreased IGF-1R expression"},
      {"measurement": "IGF-1R in the kidney (Western blotting)", "setting": "IGF-1R [4]; systemic effect of antibody", "value": "down-regulation of IGF-1R in the kidney"},
      {"measurement": "Fas-induced apoptosis of fibroblasts", "setting": "fibroblasts", "value": "did not alter Fas-induced apoptosis"},
      {"measurement": "Fas-induced apoptosis of epithelial cells", "setting": "epithelial cells (A549)", "value": "did not alter Fas-induced apoptosis"}
    ]}
  ]
}
